Assay results reported in patent US20260258143A1 (ODYSSEY THERAPEUTICS, published 2026).
Changes are numbered by the printed parent chain. Blank lines part the entries; values can stand above or below the binder they belong to.

Target: T1, human CD25-extracellular domain (CD25-ECD) (human, UniProt P01589 22-240)
T1 construct: also called human CD25-ECD; hCD25 ECD
T1 sequence: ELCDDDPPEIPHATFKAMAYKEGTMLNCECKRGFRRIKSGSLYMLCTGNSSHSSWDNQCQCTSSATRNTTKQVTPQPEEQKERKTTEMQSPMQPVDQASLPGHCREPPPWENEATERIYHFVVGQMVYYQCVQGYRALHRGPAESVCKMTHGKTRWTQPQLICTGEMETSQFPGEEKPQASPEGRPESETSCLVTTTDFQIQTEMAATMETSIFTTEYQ
Assay: SPR, V-body on chip, human CD25-ECD 500 nM then IL2-Fc 1000 nM
Experimental: The sensorgrams display IL2-Fc competition: association of human CD25-extracellular domain (ECD) to the V-body followed either by additional binding by IL2-Fc, Indicating an unoccupied epitope (non-overlapping epitopes), or no IL2-Fc binding, indicating epitope blocking (overlapping epitopes), and a buffer control, association and dissociation of human CD25-ECD in the absence of IL2-Fc. Human CD25-ECD was injected (500 nM) under physiological conditions (50 mM HEPES pH 7.4, 150 mM NaCl, 0.1% (w/v) BSA, 0.05% (v/v) Tween20, 25° C.) followed by human IL2-Fc (1000 nM). V-body ODY-83B03Hu1 was identified as a ligand competitive binder. ODY-83B05Hu1 and ODY-83F07Hu1 were identified as non-competitive binders.

- binding result: binds
B1: ODY-83B03Hu1 (VHH)
VHH: EVQLVESGGGLVQPGGSLRLSCAASGMPLVAMGWYRQAPGKQRELVASISSGGNTGYADSVKGRFTISRDNAKKTVYLQMNSVRPEDTGVYYCNIYRSQVPPTRYSWGQGTQVTVSS
notes: Captured on an SPR chip spot; also called ODY-83B03 humanized VHH

- binding result: binds
B2: ODY-83B05Hu1 (VHH)
VHH: EVQLLESGGGLVQPGGSLRLSCAASGFTLDYYAIGWFRQAPGKEREGVLSISSTDGRTYYADSVKGRFTISRDNPKNTVYLQLNSLRPEDTAVYYCAAKRLGPMVHRYSLEVLTPLFLDEYDYWGQGTQVTVSS
notes: Captured on an SPR chip spot; also called ODY-83B05 humanized VHH; ODY-83805Hu1

- binding result: binds
B3: ODY-83F07Hu1 (VHH)
VHH: B2 VHH with R107Q
notes: Captured on an SPR chip spot; also called ODY-83F07 humanized VHH
